Measurements taken from IntAct's records for PubMed 21602882.

B1: Tumor protein 63 (Homo sapiens), Q9H3D4 (parent)
chain: MNFETSRCATLQYCPDPYIQRFVETPAHFSWKESYYRSTMSQSTQTNEFLSPEVFQHIWDFLEQPICSVQPIDLNFVDEPSEDGATNKIEISMDCIRMQDSDLSDPMWPQYTNLGLLNSMDQQIQNGSSSTSPYNTDHAQNSVTAPSPYAQPSSTFDALSPSPAIPSNTDYPGPHSFDVSFQQSSTAKSATWTYSTELKKLYCQIAKTCPIQIKVMTPPPQGAVIRAMPVYKKAEHVTEVVKRCPNHELSREFNEGQIAPPSHLIRVEGNSHAQYVEDPITGRQSVLVPYEPPQVGTEFTTVLYNFMCNSSCVGGMNRRPILIIVTLETRDGQVLGRRCFEARICACPGRDRKADEDSIRKQQVSDSTKNGDGTKRPFRQNTHGIQMTSIKKRRSPDDELLYLPVRGRETYEMLLKIKESLELMQYLPQHTIETYRQQQQQQHQHLLQKQTSIQSPSSYGNSSPPLNKMNSMNKLPSVSQLINPQQRNALTPTTIPDGMGANIPMMGTHMPMAGDMNGLSPTQALPPPLSMPSTSHCTPPPPYPTDCSIVSFLARLGCSSCLDYFTTQGLTTIYQIEHYSMDDLASLKIPEQFRHAIWKGILDHRQLHEFSSPSHLLRTPSSASTVSVGSSETRGERVIDAVRFTLRQTISFPPRDEWNDFNFDMDARRNKQQRIKEEGE

Variants of: B1
Conditions: with hipk2_human HIPK2, Q9H2X6
hipk2_human HIPK2, Q9H2X6, sequence (Q9H2X6 whole entry, looked up): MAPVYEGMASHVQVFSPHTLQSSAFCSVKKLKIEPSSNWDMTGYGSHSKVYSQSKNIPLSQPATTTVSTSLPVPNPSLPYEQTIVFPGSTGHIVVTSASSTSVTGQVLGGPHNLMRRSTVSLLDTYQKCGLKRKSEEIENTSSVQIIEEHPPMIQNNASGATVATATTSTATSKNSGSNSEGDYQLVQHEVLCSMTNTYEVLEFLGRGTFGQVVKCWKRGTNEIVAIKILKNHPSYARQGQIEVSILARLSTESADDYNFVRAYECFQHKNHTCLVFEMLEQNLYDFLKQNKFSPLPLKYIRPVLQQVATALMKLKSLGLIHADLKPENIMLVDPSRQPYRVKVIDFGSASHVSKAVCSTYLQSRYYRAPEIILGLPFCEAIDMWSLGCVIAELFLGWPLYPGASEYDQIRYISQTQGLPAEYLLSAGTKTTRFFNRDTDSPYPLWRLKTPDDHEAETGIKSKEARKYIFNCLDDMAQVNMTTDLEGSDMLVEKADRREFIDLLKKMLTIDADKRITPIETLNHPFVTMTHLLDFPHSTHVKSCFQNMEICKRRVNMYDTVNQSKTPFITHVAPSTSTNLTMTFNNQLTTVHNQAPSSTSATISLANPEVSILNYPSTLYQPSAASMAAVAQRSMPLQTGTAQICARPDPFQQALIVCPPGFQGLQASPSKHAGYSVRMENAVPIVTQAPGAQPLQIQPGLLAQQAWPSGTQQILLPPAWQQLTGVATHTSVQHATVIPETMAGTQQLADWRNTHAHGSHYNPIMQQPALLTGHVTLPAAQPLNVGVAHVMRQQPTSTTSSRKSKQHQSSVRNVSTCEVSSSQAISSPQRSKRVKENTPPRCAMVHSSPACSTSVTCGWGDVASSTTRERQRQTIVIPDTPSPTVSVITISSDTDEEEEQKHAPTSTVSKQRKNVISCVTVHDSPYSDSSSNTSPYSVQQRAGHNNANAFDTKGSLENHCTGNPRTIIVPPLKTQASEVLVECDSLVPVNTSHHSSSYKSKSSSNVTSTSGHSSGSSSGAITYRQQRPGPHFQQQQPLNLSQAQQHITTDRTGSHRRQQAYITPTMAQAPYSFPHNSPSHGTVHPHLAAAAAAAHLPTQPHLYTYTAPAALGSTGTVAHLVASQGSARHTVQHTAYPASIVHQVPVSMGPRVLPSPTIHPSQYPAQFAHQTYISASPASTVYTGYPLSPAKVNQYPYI

effect of a mutation on the interaction | Variant
disrupting interaction strength | T491A
